{"source": "patent US20250027901A1", "molecular_target": "Maleimide-modified SpyTag peptide (MCA-SpyTag)", "assay": "QCMD, nanobody-SpyCatcher coupling to maleimide-SpyTag peptide on HDT SAM"}
{"substance": "VHH72-8 aa-spyCatcher-3C cleavage site-His8", "values": [{"measurement": "Density per cm^2", "value": "6.5e+12", "unit": "per cm^2"}, {"measurement": "gained mass (ng/cm^2)", "value": 313, "unit": "ng/cm^2"}]}
